From US20130287702A1 (CASE WESTERN RESERVE UNIVERSITY, published 2013)
Where no end group is shown, it is not given here.

T1: proteolytically cleaved PTPµ extracellular fragment in tumors of human LN-229 glioma cells (human, UniProt P28827 21-477, limits assumed)
T1 construct: The target is endogenous material deposited in tumor tissue, not a purified protein; also called proteolyzed extracellular fragment of PTPµ; PTPµ fragment
T1 sequence: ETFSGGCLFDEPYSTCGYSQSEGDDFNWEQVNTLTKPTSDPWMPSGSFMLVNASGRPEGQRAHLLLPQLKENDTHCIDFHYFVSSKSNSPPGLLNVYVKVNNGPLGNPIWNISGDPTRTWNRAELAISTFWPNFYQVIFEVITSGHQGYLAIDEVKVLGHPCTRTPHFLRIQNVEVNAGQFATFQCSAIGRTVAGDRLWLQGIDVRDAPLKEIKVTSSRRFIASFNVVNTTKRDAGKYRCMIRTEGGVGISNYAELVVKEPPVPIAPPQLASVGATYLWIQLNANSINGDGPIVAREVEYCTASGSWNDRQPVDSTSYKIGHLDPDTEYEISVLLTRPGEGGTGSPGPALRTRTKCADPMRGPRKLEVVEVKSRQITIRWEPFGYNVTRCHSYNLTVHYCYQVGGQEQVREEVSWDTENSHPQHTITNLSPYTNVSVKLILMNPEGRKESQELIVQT

B1: scrambled Texas Red probe (peptide)
peptide: GFTQPETGTDNDLWSVDNEK
modifications: not fully specified (N-terminus); also: Texas Red label, site not given here
B2: scrambled-Cy5 probe (peptide)
peptide: GFTQPETGTDNDLWSVDNEK
modifications: not fully specified (N-terminus)
notes: Same uncertainty about the added N-terminal glycine as for SBK2-Cy5; also called scrambled probe; scrambled version of the PTPµ probe

Legend:
[1] = target: T1, proteolytically cleaved PTPµ …; assay: fluorescent probe labeling of fixed LN-229-GFP flank tumor sections
Source text: The sections were rinsed with phosphate-buffered saline, coverslipped with Citifluor Antifadent Mounting Medium (Electron Microscopy Sciences), and imaged immediately at ×20 magnification on a Leica DMI 6000 B inverted microscope (Leica Microsystems GmbH, Wetzlar, Germany) using a Retiga EXi camera (QImaging, Surrey, BC) and Metamorph software (MolecularDevices, Downington, Pa.). Images were acquired across the entire tissue using bright-field and fluorescence optics for fluorescein (GFP) and Texas Red (probe). The resultant images were tiled and flattened to form a single composite image using Metamorph software.
Zoomed MR and corresponding heat map images for the tumor are shown (FIG. 15A). […] The corresponding flank tumor sections were incubated with SBK2-Texas Red or scrambled Texas Red probes. SBK2-Texas Red labeled the entire tumor with greatest intensity in the tumor center (FIG. 15B). This pattern is similar to that observed in the MR images following labeling with the SBK2-Tris-(Gd-DOTA)₃ probe. […] Anti-human vimentin antibody was used to label all the human cells in the mouse flank. […] Similar gradients of PTPμ extracellular fragment, as detected by the SBK2 probe, have been observed previously.

[2] = target: T1, proteolytically cleaved PTPµ …; assay: in vivo labeling of glioma intracranial tumors, Cy5 cryo-imaging

Row | Binder | binding result [1] | binding result [2]
1 | B1 | no binding (tested: 1 µM) | 
2 | B2 |  | no binding
